Assay results as given in paper PMC3510490, “Structure of Actin-related protein 8 and its contribution to nucleosome binding” (Nucleic Acids Research, 2012).

Tests used:
[1] = biological target: H2A–H2B dimer (Xenopus laevis) (UniProt P06897); assay: other fluorescence titration; Arp constructs or sub-complex titrated (1 to 5000 nM) into fluorescently labelled histone complexes or nucleosomes kept at 0.5-1 nM, 40 µl in microplates; 20 mM Tris pH 7.5, 150 mM KCl, 5% glycerol, 1 mM TCEP, 0.01% CHAPS, 0.01% octylglucoside; room temperature, 20-30 min; apparent Kd and Hill coefficient from non-linear fit; quadruplicates
[2] = biological target: 207-bp nucleosome (Xenopus laevis); assay: as above
[3] = test system: Yeast Arp4 (Saccharomyces cerevisiae); assay: fluorescence titration; details: 20 mM Tris pH 7.5, 150 mM KCl, 5% glycerol, 1 mM TCEP, 0.01% CHAPS, 0.01% octylglucoside; room temperature 20-30 min; labelled species 0.5-1 nM, protein …
[4] = test system: Human Arp8 (Δ1-33) (Homo sapiens); assay: fluorescence titration; details: 20 mM Tris pH 7.5, 150 mM KCl, 5% glycerol, 1 mM TCEP, 0.01% CHAPS, 0.01% octylglucoside, room temperature 20-30 min, labelled species 0.5-1 nM, protein …
[5] = test system: Yeast Arp8;Yeast Arp4;Actin (INO80 sub-complex I);Ino80 HSA domain (INO80 sub-complex I) (Saccharomyces cerevisiae;Saccharomyces cerevisiae;Saccharomyces cerevisiae;Saccharomyces cerevisiae); assay: fluorescence titration; details: 20 mM Tris pH 7.5, 150 mM KCl, 5% glycerol, 1 mM TCEP, 0.01% CHAPS, 0.01% octylglucoside, room temperature 20-30 min, labelled species 0.5-1 nM, protein …
[6] = test system: Yeast Arp8 (Saccharomyces cerevisiae); assay: fluorescence titration; details: 20 mM Tris pH 7.5, 150 mM KCl, 5% glycerol, 1 mM TCEP, 0.01% CHAPS, 0.01% octylglucoside, room temperature 20-30 min, labelled species 0.5-1 nM, protein …
[7] = test system: Human Arp8 full-length (Homo sapiens); assay: fluorescence titration; details: 20 mM Tris pH 7.5, 150 mM KCl, 5% glycerol, 1 mM TCEP, 0.01% CHAPS, 0.01% octylglucoside, room temperature 20-30 min, labelled species 0.5-1 nM, protein …

Sequence of Homo sapiens Arp8 (Δ1–33) (Q9H981 34-624, stated change not applied): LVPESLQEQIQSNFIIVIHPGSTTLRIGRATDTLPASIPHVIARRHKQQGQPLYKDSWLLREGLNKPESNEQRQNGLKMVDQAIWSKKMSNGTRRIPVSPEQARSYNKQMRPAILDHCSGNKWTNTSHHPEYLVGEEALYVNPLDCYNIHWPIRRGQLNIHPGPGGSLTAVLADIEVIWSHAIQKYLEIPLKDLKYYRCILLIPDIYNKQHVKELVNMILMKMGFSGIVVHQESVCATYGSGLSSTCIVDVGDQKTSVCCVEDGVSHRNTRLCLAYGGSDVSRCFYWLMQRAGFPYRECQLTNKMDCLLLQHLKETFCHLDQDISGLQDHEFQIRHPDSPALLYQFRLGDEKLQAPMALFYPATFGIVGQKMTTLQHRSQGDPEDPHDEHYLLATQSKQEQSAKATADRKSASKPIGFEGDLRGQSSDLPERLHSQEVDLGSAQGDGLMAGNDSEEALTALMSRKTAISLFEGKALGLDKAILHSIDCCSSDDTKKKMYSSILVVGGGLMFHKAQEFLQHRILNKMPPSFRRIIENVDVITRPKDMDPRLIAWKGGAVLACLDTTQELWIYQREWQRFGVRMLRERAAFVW
Sequence of Full-length Homo sapiens Arp8 (Q9H981 whole entry): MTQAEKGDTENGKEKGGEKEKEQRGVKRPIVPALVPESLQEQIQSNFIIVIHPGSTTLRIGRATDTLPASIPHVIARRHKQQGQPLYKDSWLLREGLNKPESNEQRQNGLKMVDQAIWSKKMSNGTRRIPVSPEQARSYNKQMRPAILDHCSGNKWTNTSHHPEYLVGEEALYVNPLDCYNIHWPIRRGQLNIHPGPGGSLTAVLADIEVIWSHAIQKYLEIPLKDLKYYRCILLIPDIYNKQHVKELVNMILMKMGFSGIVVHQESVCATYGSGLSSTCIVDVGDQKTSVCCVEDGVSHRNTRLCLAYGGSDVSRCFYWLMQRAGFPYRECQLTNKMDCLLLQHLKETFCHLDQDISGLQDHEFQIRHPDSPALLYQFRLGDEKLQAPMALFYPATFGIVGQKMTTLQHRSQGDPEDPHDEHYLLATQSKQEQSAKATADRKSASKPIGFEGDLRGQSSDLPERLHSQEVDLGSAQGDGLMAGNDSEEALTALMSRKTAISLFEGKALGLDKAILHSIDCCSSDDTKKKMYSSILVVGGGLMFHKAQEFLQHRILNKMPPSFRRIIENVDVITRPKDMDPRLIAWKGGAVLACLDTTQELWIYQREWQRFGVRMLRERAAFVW

Row | Kd [1] [nM] | Kd [2] [nM] | Substance | other results
1 | 1950 | 314 | Saccharomyces cerevisiae Arp8 (from UniProt Q12386 1-881) (natural protein) | 
2 | 555 | 51 | Full-length Homo sapiens Arp8 (from UniProt Q9H981 1-624) (natural protein) | 
3 |  |  | 207-bp nucleosome | Kd [3]: 204 nM; Kd [4]: 62.6 nM; Kd [5]: 63.6 nM; Kd [6]: 314 nM; Kd [7]: 51 nM
4 |  | 204 | Saccharomyces cerevisiae Arp4 (from UniProt P80428 1-489) (natural protein) | 
5 | 367 | 62.6 | Homo sapiens Arp8 (Δ1–33) (from UniProt Q9H981 34-624) (domain or fragment) | 
6 |  |  | 30-bp DNA ('601' sequence linker DNA) | Kd ([4]; 5' C6 amine): 6330 nM; Kd ([5]; 5' C6 amine): 366 nM; Kd ([6]; 5' C6 amine): 1920 nM; Kd ([7]; 5' C6 amine): 6940 nM
7 | 853 | 63.6 | Saccharomyces cerevisiae INO80 sub-complex I (Arp8–Arp4–actin-HSA) (from UniProt Q12386 1-881; P80428 1-489; P60010 1-375; P53115 462-685) | 
